Reference: patent US7049395 (YALE UNIVERSITY, dated 2006)

T1: FLAG-tagged IKKβ (human, UniProt O14920 1-756)
T1 construct: expressed in transfected COS, HEK293 or HeLa cells; also called IKKβ-FLAG; FLAG-IKKβ
T1 sequence (looked up): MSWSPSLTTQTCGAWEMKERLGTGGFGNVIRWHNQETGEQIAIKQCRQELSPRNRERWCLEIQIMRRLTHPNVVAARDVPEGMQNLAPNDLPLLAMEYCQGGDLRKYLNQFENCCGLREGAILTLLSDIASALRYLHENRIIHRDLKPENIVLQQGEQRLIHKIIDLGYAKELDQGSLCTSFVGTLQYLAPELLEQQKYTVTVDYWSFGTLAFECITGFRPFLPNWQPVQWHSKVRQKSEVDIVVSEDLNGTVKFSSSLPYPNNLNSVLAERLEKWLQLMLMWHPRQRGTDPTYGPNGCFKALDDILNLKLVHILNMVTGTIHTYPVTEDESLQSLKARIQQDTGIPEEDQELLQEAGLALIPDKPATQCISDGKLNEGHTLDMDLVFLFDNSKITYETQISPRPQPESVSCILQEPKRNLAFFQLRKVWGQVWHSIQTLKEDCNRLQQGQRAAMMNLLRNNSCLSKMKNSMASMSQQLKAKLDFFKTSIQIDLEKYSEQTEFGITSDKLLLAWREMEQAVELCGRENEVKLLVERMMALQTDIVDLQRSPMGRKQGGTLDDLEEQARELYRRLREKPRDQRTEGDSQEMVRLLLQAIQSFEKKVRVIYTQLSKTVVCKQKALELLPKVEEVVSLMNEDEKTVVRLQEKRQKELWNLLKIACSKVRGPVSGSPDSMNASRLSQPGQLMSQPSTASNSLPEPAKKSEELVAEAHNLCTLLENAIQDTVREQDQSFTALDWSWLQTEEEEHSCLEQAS

B1: NEMO-(197-419) (other, human, UniProt Q9Y6K9 197-419, looked up)
chain: VQVDQLRMQGQSVEAALRMERQAASEEKRKLAQLQVAYHQLFQEYDNHIKSSVVGSERKRGMQLEDLKQQLQQAEEALVAKQEVIDKLKEEAEQHKIVMETVPVLKAQADIYKADFQAERQAREKLAEKKELLQEQLEQLQREYSKLKASCQESARIEDMRKRHVEVSQAPLPPAPAYLSSPLALPSQRRSPPEEPPDFCCPKCQYQAPDMDTLQIHVMECIE
notes: range 197-419; [35S]-labelled in vitro translated; also transfected in COS or HEK293 cells
B2: IKKβ-(644-756) (enzyme, human, UniProt O14920 644-756, looked up)
chain: VRLQEKRQKELWNLLKIACSKVRGPVSGSPDSMNASRLSQPGQLMSQPSTASNSLPEPAKKSEELVAEAHNLCTLLENAIQDTVREQDQSFTALDWSWLQTEEEEHSCLEQAS
B3: GST-IKKβ-(644-756) (other, human, UniProt O14920 644-756, looked up)
chain: B2 chain
notes: bacterially expressed; not shown: glutathione S-transferase (GST) as encoded by vector pGEX-4T1 (Pharmacia)
B4: NEMO-(1-196) (other, human, UniProt Q9Y6K9 1-196, looked up)
chain: MNRHLWKSQLCEMVQPSGGPAADQDVLGEESPLGKPAMLHLPSEQGAPETLQRCLEENQELRDAIRQSNQILRERCEELLHFQASQREEKEFLMCKFQEARKLVERLGLEKLDLKRQKEQALREVEHLKRCQQQMAEDKASVKAQVTSLLGELQESQSRLEAATKECQALEGRARAASEQARQLESEREALQQQHS
notes: [35S]-labelled in vitro translated; also transfected in COS or HEK293 cells

How the values were obtained:
FLAG-tagged IKKβ = molecular target: T1, FLAG-tagged IKKβ; assay: co-immunoprecipitation from transfected COS or HEK293 cells
Method: For all immunoprecipitations HeLa or COS cells grown in six well trays were lysed in 500 µl TNT. FLAG-tagged proteins were precipitated from lysate of transfected cells for two hours at 4° C. using 20 µl of anti-FLAG (M2)-conjugated agarose beads (Sigma). […] For immunoblotting, precipitates were washed three times with TNT, twice with PBS then suspended in SDS-sample buffer. Proteins were separated by SDS-PAGE (10%), transferred to PVDF membranes and visualized by enhanced chemiluminesence (Amersham-Pharmacia).

GST alone [1] = molecular target: T2, GST alone (UniProt P08515 1-218 = GST); assay: GST pull-down of in vitro translated protein
T2 construct: control bait in the GST pull-downs
T2 sequence (P08515 whole entry): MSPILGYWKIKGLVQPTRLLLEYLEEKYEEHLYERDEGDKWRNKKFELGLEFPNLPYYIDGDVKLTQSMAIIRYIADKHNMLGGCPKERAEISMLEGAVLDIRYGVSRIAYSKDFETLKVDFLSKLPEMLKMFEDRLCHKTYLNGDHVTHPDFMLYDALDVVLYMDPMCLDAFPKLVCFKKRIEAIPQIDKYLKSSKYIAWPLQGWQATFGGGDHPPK

NEMO-(197-419) = molecular target: B1; assay: GST pull-down with GST-IKKβ-(644-756)
Source text: (§1) Equal amounts of each protein were used for subsequent GST pull-down analyses.

NEMO-(86-419) = molecular target: T3, NEMO-(86-419) (human, UniProt Q9Y6K9 86-419); assay: GST pull-down with GST-IKKβ-(644-756)
T3 construct: range 86-419; [35S]-labelled in vitro translated; also transfected in COS or HEK293 cells
Source text: as §1

GST alone [2] = molecular target: T2, GST alone; assay: GST pull-down of [35S]-labelled NEMO truncations
Source text: as §1

Binder: B1
binding result (FLAG-tagged IKKβ): no binding

Binder: B2
binding result (GST alone [1]): no binding

Binder: B3
binding result (NEMO-(197-419)): no binding | binding result (NEMO-(86-419)): no binding

Binder: B4
binding result (GST alone [2]): no binding
